T1: peptide No. 10 of Table 11 (SEQ ID NO: 218) (human)
T1 peptide: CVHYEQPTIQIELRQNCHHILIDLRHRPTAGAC

T2: peptide No. 11 of Table 11 (SEQ ID NO: 219) (human)
T2 peptide: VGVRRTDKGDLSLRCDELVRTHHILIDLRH

T3: peptide No. 15 of Table 11 (SEQ ID NO: 223) (human)
T3 peptide: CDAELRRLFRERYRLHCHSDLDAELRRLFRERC

T4: peptide No. 21 of Table 11 (SEQ ID NO: 229) (human)
T4 peptide: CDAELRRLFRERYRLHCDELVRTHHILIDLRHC

T5: peptide No. 23 of Table 11 (SEQ ID NO: 231) (human)
T5 peptide: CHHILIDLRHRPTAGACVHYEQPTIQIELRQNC

T6: recombinant protein of the hTROP-2 extracellular region (human, UniProt P09758 27-263)
T6 construct: produced with baculovirus, purified on Ni Sepharose; also called hTROP-2 EC; hTROP-2-EC-His; not shown: C-terminal myc-His tag from pcDNA4/myc-His A
T6 sequence: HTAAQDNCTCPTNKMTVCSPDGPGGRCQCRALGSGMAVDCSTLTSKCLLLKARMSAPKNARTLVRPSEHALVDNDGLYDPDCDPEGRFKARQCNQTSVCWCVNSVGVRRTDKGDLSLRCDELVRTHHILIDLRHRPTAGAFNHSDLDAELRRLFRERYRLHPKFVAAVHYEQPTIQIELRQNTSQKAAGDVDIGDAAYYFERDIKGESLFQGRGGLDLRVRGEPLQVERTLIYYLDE

T7: recombinant hTACSTD2-Fc-His protein (Creative BioMart) (human, UniProt P09758 27-274, limits assumed)
T7 construct: bought protein; also called hTROP-2 (low-density antigen-coated ELISA); not shown: Fc part of the bought fusion protein; not described; His tag
T7 sequence: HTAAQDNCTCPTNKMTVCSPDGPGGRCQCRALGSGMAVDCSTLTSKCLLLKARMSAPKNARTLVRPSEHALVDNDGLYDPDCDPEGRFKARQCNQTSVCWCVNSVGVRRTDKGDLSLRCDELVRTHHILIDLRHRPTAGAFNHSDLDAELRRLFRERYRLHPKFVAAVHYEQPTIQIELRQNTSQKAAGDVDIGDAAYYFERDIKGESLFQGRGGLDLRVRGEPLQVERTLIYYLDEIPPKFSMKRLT

B1: anti-hTROP-2 monoclonal antibody clone T6-16 (antibody, mouse IgG2a, V domains shown)
VH: EVQLQQSGPELVKPGASVKISCKASGYTFTDYNMHWVKQSHGKNLEWIGYIYPYNGGTGYNQRFKSRATMTVDKSSSTAYMELRSLTSDDSAVYYCAREDYGSSPSYAMDYWGQGTSVIVSS
VL: DVVMTQTPLSLPVSLGDQASISCRSSQSLVHGNGNTYLHWYLQKPGQSPKLLIYKVSNRFSGVPDRFSGSGSGTDFTLKISRVEAEDLGVYFCSQTTHVPTFGSGTKLEIK
notes: mouse IgG2a, hybridoma FERM BP-11346; also called T6-16 antibody
B2: anti-hTROP-2 monoclonal antibody clone K5-70 (antibody, mouse IgG2a, V domains shown)
VH: QVQLQQPGAELVRPGASVKLSCKASGYTFTIYWINWVKQRPGQGLEWIGNIYPSDSYTNYNQKFKDKATLTVDKSSSTAYMQLSSPTSEDSAVYYCTRTSMADYWGQGTTLTVSS
VL: DILLTQSPAILSVSPGERVSFSCRASQSIGTSIHWYQQRTNGSPRLLIKYASESISGIPSRFSGSGSGTDFTLSINSVESEDIADYYCQQSNSWPFTFGSGTKLEIK
notes: mouse IgG2a, hybridoma FERM BP-11251; also called K5-70 antibody; mouse K5-70 antibody

Assays:
[1] = target: T1, peptide No. 10 of Table 11 (SEQ ID NO: …); assay: PEPSCAN/CLIPS peptide ELISA, antibody 1 µg/mL
Protocol: (§1) 5034 types of the synthesized peptides were covalently bound to PEPSCAN cards (455 peptides/card), and the binding of the synthesized peptides to antibodies was then analyzed by the ELISA method. […] After washing, the resultant was allowed to react with a 1000-fold diluted peroxidase-secondary antibody complex at 25° C. for 1 hour. After washing, a substrate solution (a solution containing 2,2′-azino-di-3-ethylbenzthiazoline sulfonate (ABTS) and 2 μL of 3% hydrogen peroxide solution) was added to the reaction solution, followed by a chromogenic reaction for 1 hour. The binding activity of the antibodies was quantified by photographing with a CCD camera and then performing an image analysis.

[2] = target: T2, peptide No. 11 of Table 11 (SEQ ID NO: …); assay: PEPSCAN/CLIPS peptide ELISA, antibody 1 µg/mL
Protocol: as §1

[3] = target: T3, peptide No. 15 of Table 11 (SEQ ID NO: …); assay: PEPSCAN/CLIPS peptide ELISA, antibody 1 µg/mL
Protocol: as §1

[4] = target: T4, peptide No. 21 of Table 11 (SEQ ID NO: …); assay: PEPSCAN/CLIPS peptide ELISA, antibody 1 µg/mL
Protocol: as §1

[5] = target: T5, peptide No. 23 of Table 11 (SEQ ID NO: …); assay: PEPSCAN/CLIPS peptide ELISA, antibody 1 µg/mL
Protocol: as §1

[6] = target: T6, recombinant protein of the hTROP-2 …; assay: antigen-coated ELISA, plate coated with 0.5 µg/ml hTROP-2 extracellular region
Protocol: Furthermore, antigen affinity was also examined by an ELISA method. ELISA was carried out using an ELISA plate which was coated with the recombinant protein of the hTROP-2 extracellular region as described in Example 3. Specifically, a 96-well plate (BD FALCON) was coated with a 50 μl/well recombinant protein of a hTROP-2 extracellular region that had been diluted with PBS to 0.5 μg/ml (at 4° C. overnight). Thereafter, the resultant was washed with a washing buffer (PBS containing 0.05% Tween 20), and a blocking buffer (PBS containing 2% skim milk and 0.05% Tween 20) was then added thereto (200 μl/well) to block it (at room temperature for 1 hour). The resultant was washed with a washing buffer. […] The obtained dilution samples were each added in an amount of 50 μl/well to the above-described ELISA plate (at room temperature for 2 hours). […] After the mixture had been washed with a washing buffer, a TMB (3,3′,5,5′-tetramethylbenzidine: SIGMA) substrate solution was added (50 μl/well) to the resultant to carry out a color reaction. Then, 1 M sulfuric acid (25 μl/well) was added to the reaction product to terminate the reaction. Using Microplate reader Model 550 (BioRad), an absorbance at 450 nm was measured with an absorbance at 655 nm used as a reference.

[7] = target: T6, recombinant protein of the hTROP-2 …; assay: monovalent ELISA: antibody captured by anti-mouse IgG, hTROP-2 EC titrated in solution, detected with anti-His
Protocol: Thereafter, coating was carried out at 4° C. overnight. Thereafter, the reaction product was washed with a washing buffer (PBS containing 0.05% Tween 20), and a blocking buffer (PBS containing 2% skim milk and 0.05% Tween 20) was then added thereto (200 μL/well) to block it (at room temperature for 1 hour). The resultant was washed with a washing buffer. […] The mixture was left at rest at room temperature for 1 hour, and the reaction product was then washed with a washing buffer. The recombinant protein of the hTROP-2 extracellular region described in Example 3 (hTROP-2 EC) was diluted with an ELISA buffer to prepare samples with a concentration range from 5 μg/mL to a series of three-fold dilutions (10 samples). The thus obtained sample was added in each amount of 50 μL/well to the plate. The mixture was left at rest at room temperature for 1 hour, and the reaction product was then washed with a washing buffer. […] The obtained mixture was left at rest at room temperature for 1 hour, and it was then washed with a washing buffer. […] The obtained mixture was left at rest at room temperature for 1 hour, and it was then washed with a washing buffer. […] Using Microplate reader Model 550 (BioRad), an absorbance at 450 nm was measured with an absorbance at 655 nm used as a reference.

[8] = target: T7, recombinant hTACSTD2-Fc-His protein …; assay: low-density antigen-coated ELISA, plate coated with 0.1 µg/mL hTACSTD2-Fc-His, purified antibodies; K5-70 (parental antibody); low-density ELISA, 0.1 µg/mL hTROP-2 coat

Row | Binder | binding of 16-16 [1] | binding of 16-16 [2] | binding of 16-16 [3] | binding of 16-16 [4] | binding of 16-16 [5] | EC50 [6] [µg/mL] | EC50 [7] [µg/mL] | EC50 [8] [µg/mL]
1 | B1 | 602 | 601 | 566 | 527 | 524 | 0.03 |  | 
2 | B2 |  |  |  |  |  | 0.027 | 0.007 | 0.0114

— patent US20160333110A1 (CHIOME BIOSCIENCE, published 2016)
